Test results taken from paper doi:10.1101/2020.06.10.144725 (bioRxiv, 2020).

Columns and labels:
[1] = molecular target: Lip-NKD-HisC (lipoyl domain-tagged HisC of NKD1) (human (identical sequence in mouse and human)) (UniProt Q969G9); experiment: co-aggregation assay
[2] = molecular target: Lip-NKD-HisC (lipoyl domain-tagged HisC of NKD1) (human (identical sequence in mouse and human)) (UniProt Q969G9); experiment: SEC
Lip-DVL2-PDZ = molecular target: T1, Lip-DVL2-PDZ (human, UniProt O14641 285-373); experiment: ITC
T1 sequence: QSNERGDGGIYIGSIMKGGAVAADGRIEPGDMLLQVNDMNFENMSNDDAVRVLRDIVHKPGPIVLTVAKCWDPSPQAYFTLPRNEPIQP

SEC-MALS = molecular target: the molecule itself; experiment: SEC-MALS

Lip-NKD-HisC (lipoyl domain-tagged HisC of NKD1) (human (identical sequence in mouse and human)), sequence (Q969G9 whole entry, the tested form may be a part): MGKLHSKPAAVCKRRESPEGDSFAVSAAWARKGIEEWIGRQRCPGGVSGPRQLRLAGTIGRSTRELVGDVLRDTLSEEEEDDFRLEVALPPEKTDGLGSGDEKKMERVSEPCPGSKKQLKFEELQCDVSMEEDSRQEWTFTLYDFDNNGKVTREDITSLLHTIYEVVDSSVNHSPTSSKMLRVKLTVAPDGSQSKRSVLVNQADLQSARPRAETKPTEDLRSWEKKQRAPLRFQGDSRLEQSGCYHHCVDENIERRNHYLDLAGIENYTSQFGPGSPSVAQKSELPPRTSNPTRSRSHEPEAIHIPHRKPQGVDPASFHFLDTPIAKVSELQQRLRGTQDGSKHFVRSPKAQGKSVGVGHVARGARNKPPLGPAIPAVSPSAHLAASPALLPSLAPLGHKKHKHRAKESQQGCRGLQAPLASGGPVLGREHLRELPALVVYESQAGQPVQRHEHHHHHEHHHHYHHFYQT

In the case of “MBP-Axin1-HisC (from UniProt O15169 1-862) (domain or fragment)”, the molecules per core (molecules per core) [1] is reported as under 5.

Work on “Lip-NKD-HisC (lipoyl domain-tagged HisC of NKD1) (from UniProt Q969G9 1-470) (domain or fragment)” yielded a stoichiometry N [2] of 15 to 25.

“MBP-NKD-HisC (maltose-binding protein-tagged HisC of NKD1) (from UniProt Q969G9 1-470) (domain or fragment)” was tested, and the stoichiometry N [1] was 10.

Work on MBP-Axin2-HisC (domain or fragment) yielded a molecules per core (molecules per core) [1] of under 4.

B1: RFP-NKD1-EF (domain or fragment)
chain: EPCPGSKKQLKFEELQCDVSMEEDSRQEWTFTLYDFDNNGKVTREDITSLLHTIYEVVDSSVNHSPTSSKMLRVKLTVAPD
In the case of B1, the Kd (Lip-DVL2-PDZ) is reported as 3.2 ± 0.2 µM and the “stoichiometry N” value (SEC-MALS) is reported as 2.
